# Measurements: PMC5069622, “Crystal structure of human aldehyde dehydrogenase 1A3 complexed with NAD^+ and retinoic acid” (Scientific Reports, 2016)
# B1: human aldehyde dehydrogenase 1A3 (enzyme, UniProt P47895 1-512, looked up)
# chain: MATANGAVENGQPDRKPPALPRPIRNLEVKFTKIFINNEWHESKSGKKFATCNPSTREQICEVEEGDKPDVDKAVEAAQVAFQRGSPWRRLDALSRGRLLHQLADLVERDRATLAALETMDTGKPFLHAFFIDLEGCIRTLRYFAGWADKIQGKTIPTDDNVVCFTRHEPIGVCGAITPWNFPLLMLVWKLAPALCCGNTMVLKPAEQTPLTALYLGSLIKEAGFPPGVVNIVPGFGPTVGAAISSHPQINKIAFTGSTEVGKLVKEAASRSNLKRVTLELGGKNPCIVCADADLDLAVECAHQGVFFNQGQCCTAASRVFVEEQVYSEFVRRSVEYAKKRPVGDPFDVKTEQGPQIDQKQFDKILELIESGKKEGAKLECGGSAMEDKGLFIKPTVFSEVTDNMRIAKEEIFGPVQPILKFKSIEEVIKRANSTDYGLTAAVFTKNLDKALKLASALESGTVWINCYNALYAQAPFGGFKMSGNGRELGEYALAEYTEVKTVTIKLGDKNP
# notes: human ALDH1A3, full-length open reading frame amplified from cDNA of the mesenchymal glioma stem cell line 83 and cloned into pDEST17; predicted molecular weight 56108 Da; Crystallised after pre-incubation with 1 mM NAD+ and 1 mM all-trans retinoic acid; No removal of the His tag is described; In the crystal no density for the N-terminal portion and the last four residues; also called ALDH1A3; …
# Target: the molecule itself
# Assay: SEC; gel filtration of the purified protein, data not shown; native molecular mass of about 224000 Da
protein,measurement,value
B1,stoichiometry N,4
